First the molecules themselves.
B1: Cyclin-F, residues 28 to 80; numbered along this chain, P41002 (parent)
chain: RNLTILSLPEDVLFHILKWLSVEDILAVRAVHSQLKDLVDNHASVWACASFQE

± gives the uncertainty stated by the source.

Variants of B1 are the subject of the data set. Nature of the data set: abundance fitness (aPCA) (normalised: wild type 0, dead -1); higher = more abundant; growth selection in yeast, the domain comes from the species named. To be noted: Homo sapiens.
Regarding I5A, the abundance fitness was -0.657 ± 0.11.

Turning to I5C, the abundance fitness was -0.692 ± 0.16.

With I5M, the abundance fitness is -0.254 ± 0.12.

Consider I5S, for which the abundance fitness is -1.04 ± 0.15.

For I5N, the abundance fitness is -0.907 ± 0.19.

For the variant I5G, the abundance fitness is -0.78 ± 0.097.

For I5F, the abundance fitness was -0.254 ± 0.16.

Turning to I5Y, the abundance fitness is -0.544 ± 0.18.

Turning to I5T, the abundance fitness was -0.697 ± 0.17.

With I5D, the abundance fitness is -0.868 ± 0.14.

F51H: the abundance fitness was -0.123 ± 0.31.

As for F51T, the abundance fitness was -0.014 ± 0.11.

As for F51G, the abundance fitness is -0.158 ± 0.079.

For S21D, the abundance fitness was determined as 0.135 ± 0.13.

On to S21N, for which the abundance fitness is -0.148 ± 0.25.

As to S21R, the abundance fitness is -0.157 ± 0.09.

As to S21Q, the abundance fitness is -0.473 ± 0.17.

For A30F, the abundance fitness is -0.62 ± 0.16.

With A30W, the abundance fitness was -0.836 ± 0.12.

A30I: the abundance fitness is -0.264 ± 0.14.

In the case of A30M, the abundance fitness is 0.188 ± 0.11.

With A30C, the abundance fitness is 0.089 ± 0.13.

Regarding A30T, the abundance fitness is -0.04 ± 0.12.

For the variant A30K, the abundance fitness was -0.339 ± 0.14.

For L38V, the abundance fitness came to 0.273 ± 0.088.

L38P: the abundance fitness is -0.935 ± 0.27.

Consider L38Q, for which the abundance fitness is -0.682 ± 0.2.

Take L38D: the abundance fitness is -0.758 ± 0.18.

In the case of L38I, the abundance fitness was 0.244 ± 0.17.

As to L38G, the abundance fitness was -0.561 ± 0.095.

For the variant L38Y, the abundance fitness is -0.151 ± 0.16.

On to L38N, for which the abundance fitness was -0.906 ± 0.26.

For K18N, the abundance fitness was -0.107 ± 0.14.

Consider K18S, for which the abundance fitness was -0.215 ± 0.097.

Consider K18I, for which the abundance fitness was -0.449 ± 0.16.

On to K18L, for which the abundance fitness was -0.553 ± 0.092.

On to R1N, for which the abundance fitness was 0.134 ± 0.27.

Take R1A: the abundance fitness is -1.04 ± 0.42.

In the case of R1K, the abundance fitness worked out at 0.091 ± 0.42.

In the case of R1I, the abundance fitness came to 0.032 ± 0.34.

Take R1V: the abundance fitness was -0.465 ± 0.2.

As for R1T, the abundance fitness was -0.058 ± 0.13.

Regarding E23T, the abundance fitness is -0.477 ± 0.18.

With E23G, the abundance fitness is -0.48 ± 0.12.

For the variant E23R, the abundance fitness was -0.001 ± 0.12.

Take E23D: the abundance fitness came to 0.057 ± 0.24.

H42M: the abundance fitness was -0.64 ± 0.19.

As for H42T, the abundance fitness was -0.487 ± 0.13.

As to H42S, the abundance fitness was -0.347 ± 0.098.

Take H42E: the abundance fitness is -0.8 ± 0.14.

On to H42R, for which the abundance fitness was -0.175 ± 0.085.

Take H42G: the abundance fitness was -0.467 ± 0.094.

For the variant R29V, the abundance fitness is -0.541 ± 0.12.

Turning to R29E, the abundance fitness was -0.863 ± 0.18.

With R29T, the abundance fitness was -0.909 ± 0.2.

R29I: the abundance fitness is -0.793 ± 0.18.

For H32P, the abundance fitness is -0.737 ± 0.15.

As to H32N, the abundance fitness was found to be 0.262 ± 0.1.

As to H32M, the abundance fitness was -1.09 ± 0.3.

Regarding H32V, the abundance fitness is -0.532 ± 0.1.

As to H32R, the abundance fitness is -0.787 ± 0.11.

For the variant H32G, the abundance fitness was -0.591 ± 0.11.

Take H32Y: the abundance fitness was -0.895 ± 0.13.

As to H32E, the abundance fitness is -0.653 ± 0.14.

In the case of H32T, the abundance fitness is -0.503 ± 0.14.

Consider E10M, for which the abundance fitness is -0.558 ± 0.15.

E10N: the abundance fitness was -0.589 ± 0.19.

As to E10T, the abundance fitness was -0.35 ± 0.12.

E10Y: the abundance fitness is -0.505 ± 0.14.

Turning to E10H, the abundance fitness was -0.166 ± 0.1.

Turning to D37K, the abundance fitness was 0.356 ± 0.15.

Take D37L: the abundance fitness was found to be 0.03 ± 0.089.

As to D37C, the abundance fitness turned out to be 0.012 ± 0.13.

For the variant V22K, the abundance fitness is -0.132 ± 0.14.

Turning to V22W, the abundance fitness is -0.087 ± 0.079.

In the case of V22Y, the abundance fitness was 0.02 ± 0.098.

On to V22C, for which the abundance fitness is -0.286 ± 0.091.

On to A49L, for which the abundance fitness is -0.395 ± 0.1.

Regarding A49G, the abundance fitness was found to be 0.089 ± 0.073.

Regarding A49H, the abundance fitness is -0.091 ± 0.16.

As to A49C, the abundance fitness was -0.185 ± 0.12.

Consider A49R, for which the abundance fitness was determined as 0.037 ± 0.08.

Take S7I: the abundance fitness was -0.426 ± 0.2.

For the variant S7V, the abundance fitness was -0.647 ± 0.11.

Consider S7L, for which the abundance fitness is -0.647 ± 0.1.

In the case of S7M, the abundance fitness is -0.195 ± 0.14.

Take S7P: the abundance fitness was -0.767 ± 0.17.

As for S7F, the abundance fitness was -0.547 ± 0.14.

As for A47N, the abundance fitness was -0.088 ± 0.21.

For A47Y, the abundance fitness is -0.458 ± 0.23.

For the variant L35V, the abundance fitness was -0.768 ± 0.11.

As to L35R, the abundance fitness was -0.884 ± 0.14.

Consider L35C, for which the abundance fitness was -0.643 ± 0.22.

On to L35A, for which the abundance fitness was -0.772 ± 0.12.

As to Q52P, the abundance fitness is -0.377 ± 0.16.

As for Q52M, the abundance fitness is -0.256 ± 0.29.

Q52I: the abundance fitness is -0.109 ± 0.48.

As to Q52K, the abundance fitness worked out at 0.011 ± 0.17.

As for I25L, the abundance fitness was -0.33 ± 0.088.

With I25W, the abundance fitness is -0.41 ± 0.1.

In the case of I25H, the abundance fitness was -0.82 ± 0.25.

For the variant I25E, the abundance fitness was -0.809 ± 0.17.

Regarding I25P, the abundance fitness is -0.806 ± 0.15.

In the case of I25R, the abundance fitness is -0.534 ± 0.087.

Turning to I25K, the abundance fitness is -0.568 ± 0.15.

As to I25V, the abundance fitness was -0.292 ± 0.097.

Consider I25N, for which the abundance fitness was -1.14 ± 0.41.

Take S33F: the abundance fitness was -0.801 ± 0.11.

For S33K, the abundance fitness is -0.294 ± 0.091.

Turning to S33V, the abundance fitness is -0.544 ± 0.066.

Turning to S33G, the abundance fitness was -0.554 ± 0.064.

Consider S33T, for which the abundance fitness was -0.247 ± 0.08.

Consider S33I, for which the abundance fitness is -0.855 ± 0.14.

For C48M, the abundance fitness was -0.238 ± 0.13.

As to C48Y, the abundance fitness is -0.367 ± 0.12.

As to C48R, the abundance fitness was -0.321 ± 0.1.

As to C48H, the abundance fitness is -0.302 ± 0.15.

Consider C48L, for which the abundance fitness worked out at 0.075 ± 0.085.

Turning to C48N, the abundance fitness came to 0.184 ± 0.17.

C48W: the abundance fitness was -0.312 ± 0.11.

Take V28W: the abundance fitness is -0.705 ± 0.13.

Turning to V28M, the abundance fitness is 0.036 ± 0.14.

V28D: the abundance fitness was -0.885 ± 0.21.

For the variant V28T, the abundance fitness was -0.615 ± 0.15.

V28C: the abundance fitness was -0.173 ± 0.17.

For the variant V28E, the abundance fitness is -0.82 ± 0.18.

For the variant L3K, the abundance fitness is -0.354 ± 0.16.

Consider L3T, for which the abundance fitness was -0.437 ± 0.15.

L3S: the abundance fitness is -0.09 ± 0.098.

Take S44H: the abundance fitness came out at 0.222 ± 0.32.

Take S44V: the abundance fitness was -0.535 ± 0.096.

With P9H, the abundance fitness was -0.949 ± 0.19.

Consider P9N, for which the abundance fitness is -0.882 ± 0.33.

Take P9G: the abundance fitness is -0.413 ± 0.081.

As for P9V, the abundance fitness is -0.59 ± 0.11.

Consider D11E, for which the abundance fitness was -0.153 ± 0.14.

On to D11V, for which the abundance fitness is -0.269 ± 0.1.

As for D11H, the abundance fitness is -0.384 ± 0.15.

With D11F, the abundance fitness is -0.823 ± 0.22.

Take D11M: the abundance fitness was -0.488 ± 0.16.

For the variant L20N, the abundance fitness is -0.759 ± 0.23.

Turning to L20T, the abundance fitness was -0.923 ± 0.21.

For the variant L20V, the abundance fitness is -0.484 ± 0.11.

As to L20W, the abundance fitness was -0.747 ± 0.19.

L20R: the abundance fitness was -0.853 ± 0.14.

For W19G, the abundance fitness is -0.273 ± 0.097.

In the case of W19P, the abundance fitness is -0.458 ± 0.14.

On to W19S, for which the abundance fitness is -0.057 ± 0.091.

Take W19D: the abundance fitness was -0.137 ± 0.12.

In the case of W19C, the abundance fitness was found to be 0.229 ± 0.11.

Take W19E: the abundance fitness stood at 0.227 ± 0.16.

For the variant L26F, the abundance fitness is -0.424 ± 0.13.

In the case of L26D, the abundance fitness is -0.961 ± 0.29.

Take L26G: the abundance fitness is -0.451 ± 0.094.

As for L26R, the abundance fitness is -0.169 ± 0.08.

Take L26P: the abundance fitness was -0.694 ± 0.17.

As to L26E, the abundance fitness was -0.5 ± 0.13.

Consider L26Y, for which the abundance fitness was -0.386 ± 0.16.

For the variant N41V, the abundance fitness is -0.484 ± 0.15.

Consider N41K, for which the abundance fitness amounted to 0.231 ± 0.16.

Turning to N41D, the abundance fitness is -0.435 ± 0.19.

On to T4C, for which the abundance fitness was -0.55 ± 0.17.

Regarding T4A, the abundance fitness is -0.768 ± 0.13.

For the variant T4K, the abundance fitness is -0.611 ± 0.22.

In the case of T4R, the abundance fitness was -0.735 ± 0.1.

Take T4E: the abundance fitness was -0.605 ± 0.15.

Turning to T4W, the abundance fitness is -0.65 ± 0.14.
